Experimental data from patent publication US20230051538A1 (UNIVERSITY OF BRITISH COLUMBIA, published 2023).
Where two headings read alike, the source gives them in different places. Where no end group is shown, it is not given here.

Legend:
HSA = molecular target: T1, HSA (human, UniProt P02768 25-609); assay: indirect ELISA
T1 construct: irrelevant antigen in ELISA; read as human serum albumin; also called Hum; SA; HAS

Human Transferrin [1] = molecular target: T2, Human Transferrin (human, UniProt P02787 20-698); assay: indirect ELISA
T2 construct: irrelevant antigen in ELISA; also called HT

cyclo(CGTKEQGGGG)-BSA = molecular target: T3, cyclo(CGTKEQGGGG)-BSA (also: conjugated to BSA via maleimide-based coupling); assay: indirect ELISA
T3 construct: also called (1,4)-C-BSA; 1,4-C-BSA
T3 peptide: cyclo(CGTKEQGGGG)

Linear CGGTKEQGG-BSA = molecular target: T4, Linear CGGTKEQGG-BSA (also: conjugated to BSA); assay: indirect ELISA
T4 construct: linear peptide-BSA screening antigen; also called (2,2)-L-BSA; (2, 2) L-BSA
T4 peptide: CGGTKEQGG

cyclo(CGGTKEQGG)-BSA = molecular target: T5, cyclo(CGGTKEQGG)-BSA (also: conjugated to BSA via maleimide-based coupling); assay: indirect ELISA
T5 construct: also called (2,2)-C-BSA; (2, 2) C-BSA
T5 peptide: cyclo(CGGTKEQGG)

Linear CGGTKEQGGGG-BSA = molecular target: T6, Linear CGGTKEQGGGG-BSA (also: conjugated to BSA); assay: indirect ELISA
T6 construct: linear peptide-BSA screening antigen; also called (2,4)-L-BSA; 2,4-L-BSA
T6 peptide: CGGTKEQGGGG

cyclo(CGGTKEQGGGG)-BSA = molecular target: T7, cyclo(CGGTKEQGGGG)-BSA (also: conjugated to BSA via maleimide-based coupling); assay: indirect ELISA
T7 construct: also called (2,4)-C-BSA; 2,4-C-BSA
T7 peptide: cyclo(CGGTKEQGGGG)

[2] = molecular target: T8, alpha-synuclein sonicated preformed fibrils (soluble fibrils) (human, UniProt P37840 1-140); assay: SPR, antibody immobilized, kinetic fitting, 1:1 model
[3] = molecular target: T9, alpha-synuclein oligomers (UniProt P37840 1-140); assay: as above
[4] = molecular target: T9, alpha-synuclein oligomers; assay: cell-based or functional assay
cyclo(CGTKEQGGGG), free [5] = molecular target: T10, cyclo(CGTKEQGGGG), free (cyclized via a head-to-tail (C-G) amide bond); assay: indirect ELISA
T10 construct: free cyclic peptide, not conjugated; also called (1,4)-C-Free
T10 peptide: CGTKEQGGGG

[6] = molecular target: T11, Bovine serum albumin (BSA) (bovine, UniProt P02769 25-607); assay: indirect ELISA
T11 construct: carrier protein alone as ELISA control

[7] = molecular target: T8, alpha-synuclein sonicated preformed …; assay: Millipore SMC, antibody-coated magnetic particles, detection with labeled 4D6
[8] = molecular target: T9, alpha-synuclein oligomers; assay: as above
cyclo(CGTKEQGGGG), free [9] = molecular target: T10, cyclo(CGTKEQGGGG), free; assay: indirect ELISA
Linear CGGGEKTKGG-BSA = molecular target: T12, Linear CGGGEKTKGG-BSA (also: conjugated to BSA); assay: indirect ELISA
T12 construct: linear peptide-BSA screening antigen; also called ASPEP(3,2)-L-BSA
T12 peptide: CGGGEKTKGG

cyclo(CGGGEKTKGG)-BSA = molecular target: T13, cyclo(CGGGEKTKGG)-BSA (also: conjugated to BSA via maleimide-based coupling); assay: indirect ELISA
T13 construct: also called ASPEP(3,2)-C-BSA
T13 peptide: cyclo(CGGGEKTKGG)

Human Transferrin [10] = molecular target: T2, Human Transferrin; assay: indirect ELISA; remark: listed apart in the source
cyclo(CGGGGEKTKGG)-BSA = molecular target: T14, cyclo(CGGGGEKTKGG)-BSA (also: conjugated to BSA); assay: indirect ELISA
T14 construct: also called ASPEP(4,2)-C-BSA
T14 peptide: cyclo(CGGGGEKTKGG)

[11] = molecular target: T15, human complement factor H (HCFH) (human, UniProt P08603 19-1231); assay: indirect ELISA
T15 construct: unrelated protein in ELISA

[12] = molecular target: T11, Bovine serum albumin (BSA); assay: indirect ELISA; remark: listed apart in the source
cyclo(CGGGGEKTKGG), free = molecular target: T16, cyclo(CGGGGEKTKGG), free (cyclized via a head-to-tail (C-G) amide bond); assay: indirect ELISA
T16 construct: free cyclic 4,2 construct; also called 4,2-Free-C
T16 peptide: CGGGGEKTKGG

T2 sequence (P02787 20-698 limits assumed): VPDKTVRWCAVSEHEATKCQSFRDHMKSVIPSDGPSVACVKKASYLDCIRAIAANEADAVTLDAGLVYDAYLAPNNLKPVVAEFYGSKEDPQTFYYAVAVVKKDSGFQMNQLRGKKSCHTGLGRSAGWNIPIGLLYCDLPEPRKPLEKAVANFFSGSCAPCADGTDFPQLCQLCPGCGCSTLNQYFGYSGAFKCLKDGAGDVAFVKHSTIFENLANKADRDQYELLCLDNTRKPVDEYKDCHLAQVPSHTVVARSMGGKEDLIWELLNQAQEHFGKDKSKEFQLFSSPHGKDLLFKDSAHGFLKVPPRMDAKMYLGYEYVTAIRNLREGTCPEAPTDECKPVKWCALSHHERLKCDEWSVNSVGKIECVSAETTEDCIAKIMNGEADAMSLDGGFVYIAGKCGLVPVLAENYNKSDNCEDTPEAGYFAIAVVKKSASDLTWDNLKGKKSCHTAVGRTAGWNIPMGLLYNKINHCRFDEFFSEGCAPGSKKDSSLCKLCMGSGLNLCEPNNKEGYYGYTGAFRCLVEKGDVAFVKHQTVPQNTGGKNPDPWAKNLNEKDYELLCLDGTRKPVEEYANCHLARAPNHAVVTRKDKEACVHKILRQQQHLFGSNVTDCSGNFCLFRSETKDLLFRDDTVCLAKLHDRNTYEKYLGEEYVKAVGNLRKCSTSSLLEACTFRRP
T11 sequence (P02769 25-607 limits assumed): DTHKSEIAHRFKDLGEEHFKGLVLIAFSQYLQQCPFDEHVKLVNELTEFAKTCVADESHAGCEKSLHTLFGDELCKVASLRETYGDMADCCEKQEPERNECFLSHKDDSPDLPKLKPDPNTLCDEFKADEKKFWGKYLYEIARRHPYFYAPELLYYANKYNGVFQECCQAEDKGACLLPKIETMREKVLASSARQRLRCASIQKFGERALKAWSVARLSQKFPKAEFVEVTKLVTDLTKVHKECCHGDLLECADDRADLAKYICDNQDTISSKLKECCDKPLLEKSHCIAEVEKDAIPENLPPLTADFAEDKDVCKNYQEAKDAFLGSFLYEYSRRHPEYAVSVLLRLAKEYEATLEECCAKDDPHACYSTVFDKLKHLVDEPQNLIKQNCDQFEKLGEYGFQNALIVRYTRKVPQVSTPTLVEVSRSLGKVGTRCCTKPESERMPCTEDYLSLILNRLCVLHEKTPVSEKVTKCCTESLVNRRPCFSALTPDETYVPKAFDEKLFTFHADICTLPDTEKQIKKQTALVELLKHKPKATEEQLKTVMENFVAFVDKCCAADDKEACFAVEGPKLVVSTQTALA
T15 sequence (P08603 19-1231 limits assumed): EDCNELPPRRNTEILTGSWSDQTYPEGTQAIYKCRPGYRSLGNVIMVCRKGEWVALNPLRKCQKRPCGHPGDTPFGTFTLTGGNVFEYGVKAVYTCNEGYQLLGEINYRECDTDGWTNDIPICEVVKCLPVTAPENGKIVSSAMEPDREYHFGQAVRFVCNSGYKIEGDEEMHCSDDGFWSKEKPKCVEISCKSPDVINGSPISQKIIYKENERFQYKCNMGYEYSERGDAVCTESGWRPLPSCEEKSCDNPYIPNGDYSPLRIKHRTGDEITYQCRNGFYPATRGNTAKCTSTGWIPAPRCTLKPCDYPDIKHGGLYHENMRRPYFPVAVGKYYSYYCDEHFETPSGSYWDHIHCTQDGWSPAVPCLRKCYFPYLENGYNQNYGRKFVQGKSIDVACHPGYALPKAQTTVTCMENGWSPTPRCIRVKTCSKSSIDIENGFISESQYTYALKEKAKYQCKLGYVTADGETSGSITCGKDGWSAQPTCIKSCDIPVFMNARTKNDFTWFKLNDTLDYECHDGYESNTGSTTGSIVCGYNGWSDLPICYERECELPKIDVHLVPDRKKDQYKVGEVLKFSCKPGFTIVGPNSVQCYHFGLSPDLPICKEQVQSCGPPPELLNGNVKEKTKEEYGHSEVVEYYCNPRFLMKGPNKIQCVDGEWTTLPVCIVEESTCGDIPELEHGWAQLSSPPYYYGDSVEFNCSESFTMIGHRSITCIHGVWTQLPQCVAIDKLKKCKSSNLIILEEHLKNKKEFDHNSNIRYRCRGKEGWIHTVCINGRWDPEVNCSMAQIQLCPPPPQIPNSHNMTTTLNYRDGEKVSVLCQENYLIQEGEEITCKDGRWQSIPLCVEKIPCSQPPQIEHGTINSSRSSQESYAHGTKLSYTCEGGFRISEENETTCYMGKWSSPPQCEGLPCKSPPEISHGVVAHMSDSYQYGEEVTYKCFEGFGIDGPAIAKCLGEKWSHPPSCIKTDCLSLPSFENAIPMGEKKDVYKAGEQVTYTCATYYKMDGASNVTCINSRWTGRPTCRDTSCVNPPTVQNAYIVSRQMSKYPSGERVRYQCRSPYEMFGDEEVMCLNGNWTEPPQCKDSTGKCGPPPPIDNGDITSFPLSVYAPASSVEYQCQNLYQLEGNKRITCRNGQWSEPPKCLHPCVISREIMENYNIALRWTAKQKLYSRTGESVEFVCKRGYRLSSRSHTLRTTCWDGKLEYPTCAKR

B1: 2E9 (antibody, V domains shown)
VH: EVKLLESGGGLVQPGGSLKLSCAASGFDFSRYWMNWVRQAPGKGLEWIGEINPHSSTINYAPSLKDKFIISRDNAKNTLYLQMSKVRSEDTALYYCGRGDYVDYWGLGTTLTVSS
VL: DIVMSQSPSSLAVSVGEKVTMSCKSSQSLLYSRNQKNYLAWYQQKPGQSPKLLIYWASTRESGVPDRFTGSGSGTDFTLTISSVKADDLAVYYCQQYYSYPRTFGGGTKLEIK
notes: also called test clone 2E9; test mAb 2E9
ELISA reading (HSA): 0.044
ELISA reading (Human Transferrin [1]): 0.054
ELISA reading (cyclo(CGTKEQGGGG)-BSA): 1.91
ELISA reading (Linear CGGTKEQGG-BSA): 0.051
ELISA reading (cyclo(CGGTKEQGG)-BSA): 0.047
ELISA reading (Linear CGGTKEQGGGG-BSA): 0.048
ELISA reading (cyclo(CGGTKEQGGGG)-BSA): 0.055
Kd [2]: 9 nM
Kd [3]: 431 nM

B2: 10D5 (antibody, V domains shown)
VH: EVQLQQSGAELVRPGALVKLSCKGSGFNIKDYYMSWVKQRPEQGLEWIGWIDPENDNTIYDSKFQGKASITADTSSNTAYLQFSSLTPEDTAVYYCAMGGFTYWGQGTLVTVSA
VL: not shown
dopaminergic neuron survival, antibody at 250 nM [4]: 88.9 % of the control
ELISA reading (HSA): 0.065
ELISA reading (Human Transferrin [1]): 0.06
ELISA reading (cyclo(CGTKEQGGGG), free [5]): 1.25
ELISA reading [6]: 0.066
fold selectivity for fibrils versus monomers (from LLoQ) [7]: 11200 fold
fold selectivity for oligomers versus monomers (from LLoQ) [8]: 9300 fold
ELISA reading (cyclo(CGTKEQGGGG)-BSA): 2.04
ELISA reading (Linear CGGTKEQGG-BSA): 0.045
ELISA reading (cyclo(CGGTKEQGG)-BSA): 0.064
ELISA reading (cyclo(CGTKEQGGGG), free [9]): 1.25
ELISA reading (cyclo(CGGTKEQGGGG)-BSA): 1.95

B3: 11B6 (antibody, V domains shown)
VH: QVQLQQSGAELMKPGASVKISCKATGYTFSSYWVEWVKLRPGHGLEWIGEIFPGSGSANYNEKFKGKATFTADTSSNTAYMQLSSLTSEDSAVYYCTSRWYPDYFEYWGQGTTLTVSS
VL: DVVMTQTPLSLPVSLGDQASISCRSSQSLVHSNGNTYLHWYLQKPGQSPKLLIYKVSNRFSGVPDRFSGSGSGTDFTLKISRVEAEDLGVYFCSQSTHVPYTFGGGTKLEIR
dopaminergic neuron survival, antibody at 250 nM [4]: 81 % of the control
ELISA reading (Linear CGGGEKTKGG-BSA): 0.044
ELISA reading (cyclo(CGGGEKTKGG)-BSA): 0.047
ELISA reading (Human Transferrin [10]): 0.051
ELISA reading (cyclo(CGGGGEKTKGG)-BSA): 1.59
ELISA reading [11]: 0.042
ELISA reading [12]: 0.041
ELISA reading (cyclo(CGGGGEKTKGG), free): 1.27
